Test results published in patent EP3922644A2 (The Texas A&M University System, dated 2021).

Tests used:
human fibrinogen (human) [1] = target: human fibrinogen (human) (UniProt P02671); experiment: apparent KD, solid phase binding assay, DC2-Fg coated 1 µg/well, Fg titrated 0-0.3 µM
human fibrinogen (human) [2] = target: human fibrinogen (human) (UniProt P02671); experiment: ELISA, GST-tagged Coa fragment on immobilized Fg
human fibrinogen (human) [3] = target: human fibrinogen (human) (UniProt P02671); experiment: apparent affinity, ELISA, GST-tagged Coa fragment on immobilized Fg
[4] = target: Fibrinogen-D fragment (human, plasmin digest) (human) (UniProt P02671); experiment: ITC (VP-ITC), peptide titrated into 10 µM Fg-D, one-site model, 27°C
human fibrinogen (human) [5] = target: human fibrinogen (human) (UniProt P02671); experiment: apparent KD, solid phase binding assay, Efb coated 1 µg/well, Fg titrated 0-0.3 µM
[6] = target: T1, Efb-N30-105, His-tagged recombinant protein (Staphylococcus aureus strain Newman, UniProt A6QG59 30-105); experiment: apparent Kd from half maximum binding in ELISA
T1 construct: range 30-105; not shown: polyhistidine tag (detected with anti-HIS-tag antibody)
T1 sequence (looked up): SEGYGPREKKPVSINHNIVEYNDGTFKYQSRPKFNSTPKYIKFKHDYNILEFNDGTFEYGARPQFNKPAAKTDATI

[7] = target: T2, rEfb-O (Efb 68-98), GST-tagged recombinant protein (Staphylococcus aureus strain Newman); experiment: apparent Kd from half maximum binding in ELISA
T2 construct: also called Efb-O68-98; not shown: N-terminal GST tag from pGEX-5x-1
T2 chain: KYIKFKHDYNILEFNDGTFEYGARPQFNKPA

[8] = target: Efb-A30-67, GST-tagged recombinant protein (Staphylococcus aureus strain Newman, UniProt P08515 1-218 = GST; A6QG59 30-67); experiment: apparent Kd from half maximum binding in ELISA
[9] = target: T3, Fibrinogen-D fragment (human, plasmin digest) (human, UniProt P02671 124-225; P02675 164-491; P02679 89-437); experiment: ITC (VP-ITC), peptide titrated into 10 µM Fg-D, one-site model, 27°C
T3 construct: domain: D fragment; Made by digesting human Fg with plasmin for 4 h and gel filtration; also called Fg-D; Fg-D fragment
T3 sequence 1: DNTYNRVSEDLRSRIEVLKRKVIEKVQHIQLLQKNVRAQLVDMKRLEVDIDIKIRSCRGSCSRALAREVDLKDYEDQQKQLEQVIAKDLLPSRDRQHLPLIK
T3 sequence 2: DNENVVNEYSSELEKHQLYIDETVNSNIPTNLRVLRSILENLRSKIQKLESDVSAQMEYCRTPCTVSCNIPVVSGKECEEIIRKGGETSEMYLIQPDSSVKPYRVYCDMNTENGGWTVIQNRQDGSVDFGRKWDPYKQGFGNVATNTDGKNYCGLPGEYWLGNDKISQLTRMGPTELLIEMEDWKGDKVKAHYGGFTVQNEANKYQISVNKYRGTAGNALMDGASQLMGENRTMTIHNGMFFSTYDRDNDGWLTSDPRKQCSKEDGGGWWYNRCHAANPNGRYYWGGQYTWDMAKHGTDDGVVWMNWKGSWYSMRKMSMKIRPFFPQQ
T3 sequence 3: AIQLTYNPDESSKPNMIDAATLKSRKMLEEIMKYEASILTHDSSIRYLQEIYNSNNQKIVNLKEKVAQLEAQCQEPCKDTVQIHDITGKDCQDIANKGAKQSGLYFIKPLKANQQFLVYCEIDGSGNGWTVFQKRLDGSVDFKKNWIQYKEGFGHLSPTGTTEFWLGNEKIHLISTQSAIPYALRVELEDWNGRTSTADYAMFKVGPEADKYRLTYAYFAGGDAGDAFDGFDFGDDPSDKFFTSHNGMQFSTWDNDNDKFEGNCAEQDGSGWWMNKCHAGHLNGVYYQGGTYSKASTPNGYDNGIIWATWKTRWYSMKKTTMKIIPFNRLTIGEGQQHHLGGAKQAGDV

With “DC2-Fg, DC2 with the fibrinogen binding motif Efb-O inserted after Gln 301 (designed binder)” the Kd (human fibrinogen (human) [1]) was 10 nM.

“Coa-C (Coa 311-636), GST-tagged (from UniProt P08515 1-218)” showed an EC50 (human fibrinogen (human) [2]) of 7.5 nM.

“Coa-R (Coa 506-636), GST-tagged (from UniProt P08515 1-218)” was tested, and the Kd (human fibrinogen (human) [3]) was 0.8 nM.

sCoa-RV1, synthetic peptide Coa 610-636 was tested, and the Kd [4] was 139 nM.

For “Efb as coated in the solid phase binding assay of the DC proteins (from UniProt A6QG59 30-165)”, the Kd (human fibrinogen (human) [5]) was 1 nM.

With sCoa-RI3, synthetic peptide Coa 502-528 the Kd [4] was 124 nM.

B1: FBE5-F11 (Fc fusion)
VH: QVQLQESGGGVVQPGRSLRLSCAASGFTFSSYGMHWVRQAPGKGLEWVAVISYDGSNKYYADSVKGRFTISRDNSKNTLYLQMNSLRAEDTAVYYCAKDLASSGFDYWGQGTLVTVSS
VL: QSVLTQPPSVSAAPGQKVTISCSGSSSNIGNNYVSWYQQLPGTAPKLLIYDNNKRPSGIPDRFSGSKSGTSATLGITGLQTGDEADYYCGTWDSSLSAEVFGGGTKLTVL
notes: Tested as scFv-Fc (human scFv from HAL9/HAL10 recloned into pCSE2.6-hIgG1-Fc-XP, made in HEK293-6E)
B1 gave a Kd [6] of about 0.1 nM, a Kd [7] of about 0.1 nM and a Kd [8] of about 0.1 nM.

B2: sCoa-RI, synthetic peptide Coa 506-532 (peptide)
peptide: ETNAYNVTTHANGQVSYGARPTYKKPS
notes: also called peptide CoaRI
Molecule B2 has a Kd [9] of 88 nM.
